According to patent US20060067886A1, “Gastrin receptor-avid peptide conjugates” (priority 1997, published 2006):

Experiment: in vivo
Details: SCID, mouse, iv, 4 uCi, total radioactivity
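Also: SCID mice bearing bilateral flank PC-3 or MDA-MB-231 xenografts, tail-vein dosing, organs sampled from 15 min to 72 h post-injection, radioactivity measured with NaI well counter.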

Procedure: In vivo pharmacokinetic studies in human tumor bearing SCID mice. […] The xenograft models were produced by bilateral flank inoculation of 5×10^6 cells (PC-3 or MDA-MB-231 cells) per site. Four to six weeks post inoculation, palpable tumors were observed. At this point, the mice were injected with 4 μCi of the complex in 100/μL of isotonic saline via the tail vein. The mice were euthanized and tissues and organs were excised from the animals at selected times post-injection (p.i.), including 15 minutes, 30 minutes, 1 hour, 4 hours, 24 hours, 48 hours, and 72 hours p.i. Subsequently, the tissues and organs were weighed and counted in a NaI well counter and the percent injected dose (% ID) and % ID/g of each organ or tissue calculated.

With `CSCC[C@H](NC(=O)[C@H](CC(C)C)NC(=O)[C@H](Cc1cnc[nH]1)NC(=O)CNC(=O)[C@@H](NC(=O)[C@H](C)NC(=O)[C@H](Cc1c[nH]c2ccccc12)NC(=O)[C@H](CCC(N)=O)NC(=O)CCCCCCCNC(=O)CN1CCN(CC(=O)O)CCN(CC(=O)O)CCN(CC(=O)O)CC1)C(C)C)C(N)=O` [111In-DOTA-8-Aoc-BBN[7-14]NH2, metal not drawn] the tissue uptake at 1 h (blood) was 0.35 ± 0.08 %ID/g, the tissue uptake at 4 h (blood) was 0.08 ± 0.1 %ID/g and the tissue uptake at 24 h (blood) was 0.02 ± 0.03 %ID/g. For the same molecule, the tissue uptake at 1 h (heart) was 0.15 ± 0.11 %ID/g, the tissue uptake at 24 h (heart) was 0.08 ± 0.06 %ID/g and the tissue uptake at 1 h (kidney) was 3.29 ± 0.56 %ID/g. For the same molecule, the tissue uptake at 4 h (kidney) was 1.76 ± 0.15 %ID/g, the tissue uptake at 24 h (kidney) was 0.98 ± 0.28 %ID/g and the tissue uptake at 1 h (large intestine) was 5.14 ± 0.42 %ID/g. For the same molecule, the tissue uptake at 4 h (large intestine) was 5.58 ± 1.26 %ID/g, the tissue uptake at 24 h (large intestine) was 2.76 ± 0.49 %ID/g and the tissue uptake at 1 h (liver) was 0.31 ± 0.04 %ID/g. The tissue uptake at 4 h (liver) was 0.15 ± 0.09 %ID/g, the tissue uptake at 24 h (liver) was 0.07 ± 0.02 %ID/g and the tissue uptake at 1 h (lung) was 0.31 ± 0.09 %ID/g. The tissue uptake at 4 h (lung) was 0.06 ± 0.06 %ID/g, the tissue uptake at 24 h (lung) was 0.05 ± 0.05 %ID/g and the tissue uptake at 1 h (muscle) was 0.08 ± 0.05 %ID/g. It also gave a tissue uptake at 4 h (muscle) of 0.06 ± 0.13 %ID/g, a tissue uptake at 1 h (pancreas) of 23.4 ± 4.99 %ID/g and a tissue uptake at 4 h (pancreas) of 17.9 ± 5 %ID/g. It also gave a tissue uptake at 24 h (pancreas) of 5.06 ± 0.77 %ID/g, a tissue uptake at 1 h (small intestine) of 5.15 ± 0.19 %ID/g and a tissue uptake at 24 h (small intestine) of 0.9 ± 0.14 %ID/g. The tissue uptake at 1 h (spleen) was 0.57 ± 0.1 %ID/g, the tissue uptake at 4 h (spleen) was 0.48 ± 0.25 %ID/g and the tissue uptake at 24 h (spleen) was 0.21 ± 0.07 %ID/g. It also gave a tissue uptake at 4 h (stomach) of 0.27 ± 0.08 %ID/g, a tissue uptake at 24 h (stomach) of 0.33 ± 0.1 %ID/g and a tissue uptake at 1 h (tumor (Tumor 1)) of 0.91 ± 0.16 %ID/g. The tissue uptake at 4 h (tumor (Tumor 1)) was 0.36 ± 0.13 %ID/g, the tissue uptake at 24 h (tumor (Tumor 1)) was 0.22 ± 0.07 %ID/g and the tissue uptake at 1 h (tumor (Tumor 2)) was 0.74 ± 0.27 %ID/g. The tissue uptake at 4 h (tumor (Tumor 2)) was 0.4 ± 0.23 %ID/g, the tissue uptake at 24 h (tumor (Tumor 2)) was 0.24 ± 0.15 %ID/g and the tissue uptake at 1 h (tumor) was 0.83 ± 0.23 %ID/g. For the same molecule, the dose excreted at 1 h (urine) was 72.1 ± 3.55%, the dose excreted at 4 h (urine) was 84.3 ± 2.09% and the dose excreted at 24 h (urine) was 83.8 ± 1.41%.
